Measured values taken from patent US20240252474A1, “METHODS AND COMPOSITIONS COMPRISING A CARDIO-TOLERATED HDAC INHIBITOR” (HUYABIO International, LLC, priority 2023, published 2024).

Assay: Phase 1b safety and tolerability of HBI-8000 combined with nivolumab (DLTs, TEAEs)
Format: in vivo
Procedure: The present example, was a Phase Ib/2 open-label dose finding study for HBI-8000 (also referred to in the art as “chidamide” or “tucidinostat” and also referred to herein as a compound of formula I) in combination with nivolumab in patients with advanced solid tumors, including melanoma, RCC (renal cell carcinoma), and NSCLC (non-small cell lung cancer). This study was conducted in accordance with Good Clinical Practice guidelines and the Declaration of Helsinki and with assurance/approval from the US Department of Health and Human Services; the protocol was approved by the institutional review boards or ethics committees of all participating sites. All patients provided written informed consent to participate before enrollment. […]
HBI-8000 at three dose levels (20 mg, 30 mg, and 40 mg) given orally twice a week (BIW) were evaluated. Doses were taken approximate 30 minutes after a meal. The starting dose (20 mg) was selected based on pharmacokinetic profiles established for monotherapy in Japanese patients with T-cell lymphoma.
The decision to escalate the dose was based on the conventional 3+3 design and observed incidences of dose-limiting toxicities (DLTs). Each treatment cycle was defined as 28 days. […] Subjects experiencing DLT within the first two weeks after having received 100% of assigned dose of HBI-8000 are also evaluable for DLT. Unacceptable toxicities were defined as grade 3 or higher non-hematologic and hematologic toxicities with clinical complications. Unacceptable toxicities observed over the first 28 days following HBI-8000 administration were considered as DLTs. […] HBI-8000 administration continued until disease progression or unacceptable toxicity was observed. The efficacy of the combination was further evaluated in an expanded cohort of selected patient populations at RP2D based on an objective response rate according to Response Evaluation Criteria in Solid Tumors (RECIST) version 1.1 criteria, progression-free survival, and duration of responses.
Safety evaluations included physical examinations, vital signs, ECGs, ECOG performance status, and laboratory tests.
Statistical analyses of safety, tolerability, and anti-tumor activity were primarily descriptive in nature. Toxicities were tabulated by type and grade. The safety population included all patients who received ≥1 dose of HBI-8000 and nivolumab. Continuous variables were summarized using descriptive statistics and categorical variables were summarized with number and percentage at each category. Pharmacokinetic parameters were derived using noncompartmental methods with Phoenix® WinNonlin® Version 6.4 (Certara, L. P., Princeton, NJ, USA).

[1] = 20 mg HBI-8000 BIW + nivolumab, N = 3
[2] = 30 mg HBI-8000 BIW + nivolumab, N = 7
[3] = 40 mg HBI-8000 BIW + nivolumab, N = 7

Q: For “Nivolumab: fully human monoclonal antibody directed against PD-1 (marketed as OPDIVO) [reference compound]”, which “Diarrhoea, Related Nivo, Any G” value [1] is on record?
A: 1 (33) n (%)

Q: What about the “SAE related to Nivolumab alone, number of subjects” value (“SAE related to Nivolumab alone” for short) [1] of the same substance?
A: 1 n

Q: What about the “TEAE related to Nivolumab alone, number of subjects” value (from here on “TEAE related to Nivolumab alone”) [1] of the same substance?
A: 2 n

Q: And the “TEAE resulting in discontinuation of Nivo alone, number of subjects” value (shortened to “TEAE resulting in discontinuation”) [1]?
A: 1 n

Q: What about the “Weight decreased, Related Nivo, Any G” value [1] of the same substance?
A: 1 (33) n (%)

Q: And the “Back pain, Related Nivo, Any G” value [2]?
A: 2 (29) n (%)

Q: And the “Dyspnoea, Related Nivo, Any G” value [2]?
A: 1 (14) n (%)

Q: And the “Fall, Related Nivo, Any G” value [2]?
A: 1 (14) n (%)

Q: And the “Hypoxia, Related Nivo, Any G” value [2]?
A: 1 (14) n (%)

Q: What about the “Lipase increased, Related Nivo, Any G” value [2] of the same substance?
A: 1 (14) n (%)

Q: And the “SAE related to Nivolumab alone” value [2]?
A: 2 n

Q: What about the “TEAE related to Nivolumab alone” value [2] of the same substance?
A: 6 n

Q: What about the “TEAE resulting in discontinuation” value [2] of the same substance?
A: 4 n

Q: And the “Diarrhoea, Related Nivo, Any G” value [3]?
A: 1 (14) n (%)

Q: What about the “SAE related to Nivolumab alone” value [3] of the same substance?
A: 1 n

Q: What about the “TEAE related to Nivolumab alone” value [3] of the same substance?
A: 2 n

Q: What about the “TEAE resulting in discontinuation” value [3] of the same substance?
A: 2 n

Q: What about the “SAE related to Nivolumab alone” value (Total, all dose levels, N = 17) of the same substance?
A: 4 n

Q: What about the “TEAE related to Nivolumab alone” value (Total, all dose levels, N = 17) of the same substance?
A: 10 n

Q: What about the “TEAE resulting in discontinuation” value (Total, all dose levels, N = 17) of the same substance?
A: 7 n
